According to patent US20220125947A1 (published 2022):

molecular target: T1, gamma-delta T cell receptor on human γδ T cells (human); assay: flow cytometry, dose-response binding at 37 C, human γδ T cells
T1 construct: also called AG000003021 (γδ T cells)
Protocol: (§1) Binding of antibodies to human γδ T cells or SKW cell lines expressing Vγ9/Vδ2, Vγ9/Vδ2 or Vγ5/Vδ2 was carried out by flow cytometry. Briefly, the cells were centrifuged at 300×g for 5 minutes and the pellet was resuspended in 34 ml fresh media (in RPMI+10% FBS). 50 μL of the cells were then plated (44K cells/well) into assay plates. Samples were incubated for one hour at 37° C. in tissue culture (TC) incubator followed by wash steps by adding 100 μl FACS staining buffer. Secondary detention antibodies (A647 conjugated anti-human IgG Fc specific antibody (2 μg/mL) along with AF488 anti mouse CD3, clone OKT3 at 1 ug/mL) were added at 50 μL/well to appropriate wells according to the plate map. After incubating for 60 minutes at 37° C. in the TC incubator, cells were again washed as described above. This is followed by resuspension in 20 μL/well running buffer containing 1:1000 dilution of Sytox blue dead cell stain and the plates were run on iQue Screener.
(§2) Gating and data analysis: Human anti-human Vγ9 antibody (VG9B2 mAb at 10 nM) was used to mark the gating of positive population. All cells were first gated for singlets on SCS-A vs. SCS-H dot plot, live/dead followed by CD3 positive population, and this subset of CD3 positive population was gated for Vγ9 positive binding using positive control mAb. Cells were also assessed for cell binding of control mAbs by RL1 (A647) Geomeans from the live cell population. Advanced metrics were used and normalization metrics were chosen to calculate fold over background wells containing secondary antibody alone (designated as ‘background’ within ForeCyt settings).

Binder	Max. Activity [fold over background]
VG9B106 (antibody, human IgG1, kappa, V domains shown, IgG1, kappa) VH: EVQLVQSGAEVKKPGASVKVSCKASGYTFTGYYLHWVRQAPGQGLEWVGWINPSSGDTDYAQTFQGRVTMTRDTSISTAYMELSRLRSDDTAVYYCANELGIGVFDYWGQGTLVTVSS VL: not shown	1520
VG9B87 (antibody, human IgG1, kappa, V domains shown, IgG1, kappa) VH: QVQLVESGAEVKKPGASVKVSCKASGYTFTSEYIHWVRQAPGQGLEWMGIINPSGGSTSYAQRFQGRVTMTRDTSTSTVYMEVNSLRSEDTAVYYCARERGYSYGSFDYWGQGTLVTVSS VL: EIVLTQSPSFLSASAGDRVTITCRASQGISSYLAWYQQKPEKAPKLLIYAASTLQSGVPSRFSGSGSGTEFTLTISSLQPEDFATYYCQQFNSYSLTFGGGTKLEIKR	2330
VG9B114 (antibody, human IgG1, kappa, V domains shown, IgG1, kappa) VH: EVQLVESGGDLVQPGGSLRLSCAASGFTFSRYDMHWVRQATGKGLEWVSAIGSAGDTYYPGSVKGRFTISRENAKNSLYLQMNSLRAGDTAVYYCARGKWELRDAFDIWGQGTMVTVSS VL: DIVMTQSPSFLSASVGDRVTITCRASQGIHSYLAWYQQKPGKAPKLLIYVASTLQSGVPSRFSGSRSGTEFTLTISSLQPEDFATYYCQQLNSYPYTFGQGTKLEIKR	1980
VG9B81 (antibody, human IgG1, kappa, V domains shown, IgG1, kappa) VH: QVQLQESGPGLVKPSETLSLTCSVSGGSINTYYWSWFRQPAGKGLELIGRIYTSDNTNYNPSLKSRVTMSVDTSKNQFSLKLSSVTAADTAVYYCARYNWNYWYFDLWGRGTLVTVSS VL: DIQMTQSPSFLSASVRDRVNITCRASQGISSYLAWYQQKPGKAPKLLIYTASTLQSGVPSRFSGSGSGTEFTLTISSLQPEDFATYYCQHLNSYPYTFGQGTKVEIKR	1770
VG9B65 (antibody, human IgG1, kappa, V domains shown, IgG1, kappa) VH: QVQLVQSGAEVKKPGSSVKVSCKASGGTFNIYAINWVRQAPGQGLEWMGGIIPFFGTANYAQKFQDRVTITADKSTNTAYMELSSLRSEDTAVFYCARGGDSGYDWGFDYWGQGTLVTVSS VL: DIVMTQTPLSSPVTLGQPASISCRSSQSLVHSDGNTYLSWLQQRPGQPPRLLIYQISNRFSGVPDRFSGSGAGTDFTLNISRVEADDVGVYYCMQATQFPLTFGGGTKVEIKR	1820
VG9B147 (antibody, human IgG1, lambda, V domains shown, IgG1, lambda) VH: QVQLQESGPGLVNPSETLSLTCTVSGGSISGYFWNWIRQPPGKGLEWIGYIFYSGSTNYNPSLKSRVTISVDTSKNQFSLKLSSVTAADTAIYYCAREGKWELRSTFDIWGQGTMVTVSS VL: SSELTQDPAVSVALGQTVRITCQGDSLRSYYATWYQQKPGQAPILVIYGENNRPSGIPDRFSGSRSGNTASLTITGAQAEDEADYYCNSRDTGDHHLVFGGGTKLTVLG	1890
VG9B177 (antibody, human IgG1, lambda, V domains shown, IgG1, lambda) VH: QVQLQESGPGLVKPSETLSLTCTVSGGSINNYFWSWIRQPPGKGLEWIGYIFYSGSTNYNPSLKSRVTISIDTSKNQFSLKVNSVTAADTAVYYCARVGKWELRTAFDIWGQGTMVTVSS VL: QSALTQPASVSGSPGQSITISCTGTSSDVADYNYVSWYQQHPGKAPKLMIYEVSNRPSGVSNRFSGSKSGNTASLTISGLQAEDEADYYCCSYTSSFTVVFGGGTKVTVLG	2250
VG9B103 (antibody, human IgG1, kappa, V domains shown, IgG1, kappa) VH: EVQLVQSGAEVKKPGSSVKVSCKTSGGTFSSYAISWVRQAPGQGLEWMGGIIPIFGTATYAQKFQDRVTITADKSTSTAYMELSSLRSEDTAVFYCARGVGWGTDYYYGLDVWGQGTTVTVSS VL: ETTLTQSPLSSPVTLGQPASISCRSSQGLVHSDGNTYLSWLQQRPGQSPRLLIYKISNRFSGVPDRFSGSGAGTDFTLKISRVEAEDVGVYYCMQATHHPLTFGGGTKVEIKR	1680

More lines, now with the values ahead:

Max. Activity [fold over background]	Binder
2310	VG9B208 (antibody, human IgG1, lambda, V domains shown, IgG1, lambda) VH: QVQLQESGPGLVKPSETLSLTCTVSGGSISGYYWSWIRQPPGKGLELIGYIFYSGSINYNPSLKNRVTISLDTSKNQFSLKLTSVTAADTAVYYCARVGKWELRSSFDIWGQGTMVTVSS VL: QSVLTQPPSVSAAPGQKVTISCSGSTSNIGNNDVSWYQQLPGTAPKLLIYDNNKRPSGIPDRFSGSKSGTSATLGITGLQTGDEADYYCGTWDSSLSVWVFGGGTKLTVLG
1750	VG9B203 (antibody, human IgG1, lambda, V domains shown, IgG1, lambda) VH: QVQLVQSGPGLVKPSETLSLTCTVSGDSIGHYYWNWIRQPAGKGLEWIGRIYTSGSTNYNPSLKSRVTMSVDTSKNQFSLKLSSVTAADTAVYYCARSGGNFYWYFDLWGRGTLVTVSS VL: QSVLTQPPSVSAAPGQKVTISCSGSSSNIGNNYVSWYQQVPGTAPKLLIYDNNKRPSGIPDRISGSKSGTSATLGITGLQTGDEADYYCGTWDSSLSAGVFGGGTKVTVLG
1540	VG9B462 (antibody, human IgG1, lambda, IgG1, lambda) heavy: not shown light: QSVLTQPASVSGSPGQSITISCTGTSSDVGGYNYVSWYQQHPGKAPKLMIYEVSNRPSGVSNRFSGSKSGNTASLTISGLQAEDEADYYCSSYTSTSVVFGGGTKLTVLGQPKAAPSVTLFPPSSEELQANKATLVCLISDFYPGAVTVAWKADSSPVKAGVETTTPSKQSNNKYAASSYLSLTPEQWKSHRSYSCQVTHEGSTVEKTVAPTECS
1540	VG9B461 (antibody, human IgG1, lambda, IgG1, lambda) heavy: not shown light: QPVLTQSSSVSGSPGQSITISCTGTSSDVGGYNYVSWYQQHPGKAPKLMIYEVSNRPSGVSNRFSGSKSGNTASLTISGLQAEDEADYYCSSYTSTSVVFGGGTKVTVLGQPKAAPSVTLFPPSSEELQANKATLVCLISDFYPGAVTVAWKADSSPVKAGVETTTPSKQSNNKYAASSYLSLTPEQWKSHRSYSCQVTHEGSTVEKTVAPTECS
1750	VG9B380 (antibody, human IgG1, lambda, V domains shown, IgG1, lambda) VH: QVQLQESGPGLVKPSETLSLTCTVSGGSISNYYWSWIRQPAGKGLEWIGRIYPSGITSYDPSLKSRVTMSLDTSKNQFSLKLTSVTAADTAVYYCAGIMGTKGAFDIWGQGTMVTVSS VL: QSALTQPASVSGSPGQSITISCTGTSSDVGGYNYVSWYQQHPGKAPKLLIYEVSNRPSGVSNRFSGSKSGSTASLTISGLQAEDEADYYCSSYTSTSVVFGGGTKLTVLG
2290	VG9B186 (antibody, human IgG1, lambda, V domains shown, IgG1, lambda) VH: QVTLRESGPVLVKPTETLTLTCTVSGFSLTNIRMSVSWIRQPPGEALEWLAHIFSNDEKSYNSSLKSRLTISRDTSKSQVVLTLTNVDPVDTATYYCARMRLPYGMDVWGQGTMVTVSS VL: not shown
2290	VG9B372 (antibody, human IgG1, kappa, V domains shown, IgG1, kappa) VH: QVQLQESGPGLVKPSQTLSLTCTVSGGSISNGGFYWSWIRQHPGKGLEWLGYINYSGSTYYNPSLESRGTISLDTSKNQFSLKLRSVTAADTAVYYCARDRNYEWNFDLWGRGTLVTVSS VL: EIVMTQSPATLSLSPGEGATLSCRASQSVSSYLAWYQQKPGQAPRLLVYDASNRATGIPARFSGSGSGTAFTLTITSLEPEDFVVYYCQQRSNWPLTFGGGTKLEIKR

molecular target: T2, γδ T cell receptor on human γδ T cells (human); assay: flow cytometry, dose-response (DRC) binding at 37°C on human γδ T cells
T2 construct: also called AG000003021 (γδ T cells)
Protocol: as §1, §2

Max. Activity [fold over background]	Binder
2370	VG9B182 (antibody, human IgG1, lambda, V domains shown, also called antibody #76) VH: QVQLVESGPGLVKPSETLSLTCTVSGDSINNHFWSWIRQPPGKGLEWIGFVFYNGNTNYNPSLKSRVTISIDTSKSQFSLKLTSVTAADTAVYYCARVGRWVLRTAFDIWGQGTMVTVSS VL: not shown
2360	VG9B173 (antibody, human IgG1, lambda, V domains shown, also called antibody #77) VH: QVQLQESGPGLVKPSETLSLTCTVSGGSINNYFWSWIRQPPGKGLEWIGYIYYSGSTNYNPSLKSRVTISVVTSMNQFSLKLSSVTAADTAVYYCAREGKWELRSAFDIWGQGTMVTVSS VL: not shown
